The chains are these.
T1: deglycosylated RNF43 (human, UniProt Q68DV7 24-197, biotin; deglycosylated with Deglycosylation Mix II (glycosylation sites N62 and N92))
T1 chain: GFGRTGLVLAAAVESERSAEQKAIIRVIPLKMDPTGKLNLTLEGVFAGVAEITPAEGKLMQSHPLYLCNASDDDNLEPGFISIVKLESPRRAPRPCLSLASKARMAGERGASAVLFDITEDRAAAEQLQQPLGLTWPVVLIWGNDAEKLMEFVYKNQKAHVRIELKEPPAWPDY

T2: human RNF43 (in solution) (human)
T2 chain: T1 chain

B1: extracellular domain (ECD) of the human RNF43 protein, biotinylated (domain or fragment)
chain: T1 chain
modifications: biotin (EZ-link-NHS-PEG4-biotin), 1–2 biotin molecules per protein
B2: mouse RNF43 (domain or fragment)
chain: GFGHTGRVLAAAVESERSAEQKAVIRVIPLKMDPTGKLNLTLEGVFAGVAEVTPAEGKLMQSHPLYLCNASDDDNLEPGFISIVKLESPRRAPRPCLSLASKARMAGERGANAVLFDITEDRSAAEQLQQPLGLTKPVVLIWGSDAAKLMEFVYKNRKAYVWIELKEPPAGANY

Ends that are not written are not given here. * marks the point of attachment. Biotin = O=C1N[C@H]2[C@H](CS[C@H]2CCCCC(=O)*)N1; azide = [N-]=[N+]=N*

The target of one assay is T1, deglycosylated RNF43. As to the kind of experiment: SPR; deglycosylated RNF43. A general note: In SPR one partner is held on a chip, and binding of the other changes the refractive index at the surface.
The target of assay [1] is B1. As to the kind of experiment: SPR.
For the assay “mouse RNF43”, the target named is B2. As to the kind of experiment: SPR.
In another assay the target is GUR-1.6.12.4. As to the kind of experiment: SPR.
For the next assay, the target named is GUR-1. As to the kind of experiment: SPR.
For a further assay, the target named is GUR-1.6.12.16. As to the kind of experiment: SPR.
The next assay concerns the target GUR-1.6.12.12. As to the kind of experiment: SPR.
The target of a further assay is NAz-GUR-1.6.12.2. As to the kind of experiment: SPR.
For assay [2], the target named is B1. As to the kind of experiment: SPR.
The target in assay [3] is T2, human RNF43 (in solution). As to the kind of experiment: SPR; bio-GUR-1.6.12.2 immobilized.
Assay [4] concerns the target B1. As to the kind of experiment: SPR; RNF43 immobilized.

One may read the Kd as the free concentration of one partner at which half of the binding sites on the other are occupied at equilibrium, for simple one-to-one binding. Turning to EQCTSTQDLCHDYSHVCCWPLDCRWAVKYQWFWDCIG (designed binder) [GUR-1.6.12.2], the values for the Kd (in the assay with deglycosylated RNF43; in assay [1]; with mouse RNF43) were 2.8 nM, 1.1 nM and 2.1 nM, respectively.

For the molecule B1, the Kd with GUR-1.6.12.4 turned out to be 3.9 nM; with GUR-1, 1220 nM; in the assay with GUR-1.6.12.16 it was 4 nM; with GUR-1.6.12.12, 7.9 nM; in the assay with NAz-GUR-1.6.12.2 it was 2.9 nM.

In [2], HDYSHVCCWPLDCRWAVKYQWFWDCIG [truncated peptide GUR-1.6.12.2 H11-G37] gave a Kd of 4.6 nM.

As for Biotin-EQCTSTQDLCHDYSHVCCWPLDCRWAVKYQWFWDCIG (designed binder, cysteine pairing not given here) [N-terminal biotinylated GUR-1.6.12.2], the Kd in assay [3] was 46.9 nM; in assay [4] it was 0.5 nM.

With azide-EQCTSTQDLCHDYSHVCCWPLDCRWAVKYQWFWDCIG (designed binder, also: hexamer via six-armed PEG linker (azide–alkyne cycloaddition)) [hex-GUR-1.6.12.2], the Kd in assay [2] was found to be 0.0002 nM.

As to B2, the Kd came to 4.5 nM in the assay with GUR-1.6.12.4, 1.6 nM in the assay with GUR-1.6.12.16 and 5.1 nM with GUR-1.6.12.12.

QCVKKDELCIPYYLDCCWPLDCRWAVKYQWFWDCIG (designed binder) [GUR-1.6.12] registered a Kd in [1] of 56 nM.

The molecule QCVKKDELCIPYYLDCCEPLECRWAVKYQWFWDCIG (designed binder) [GUR-1.6] returned a Kd in assay [1] of 92 nM. Against the preceding molecule, the Kd is about 1.6-fold higher.

In assay [2], azide-EQCTSTQDLCHDYSHVCCWPLDCRWAVKYQWFWDCIG (designed binder, also: dimer via bivalent PEG5 linker (azide–alkyne cycloaddition)) [di-GUR-1.6.12.2] showed a Kd of 0.06 nM.
